The nature of the data set: soluble on expression in E. coli; label from the status in PepcDB or PDB records.
Take “MPEAWIVEAVRTPIGKHGGALASVRPDDLLAHALSVLVDRSGVPKEEVEDVYAGCANQAGEDNRNVARMALLLAGFPVEVAGCTVNRLCGSGLEAVAQAARAIWAGEGKVYIGSGVESMSRAPYAVPKPERGFPTGNLVMYDTTLGWRFVNPKMQALYGTESMGETAENLAEMYGIRREEQDRFALLSHQKAVRAWEEGRFQDEVVPVPVKRGKEEILVEQDEGPRRDTSLEKLAALRPVFREGGTVTAGNSSPLNDGAAAVLLVSDDYAKAHGLRPLARVRAIAVAGVPPRIMGIGPVPATRKALERAGLSFSDLGLIELNEAFAAQALAVLREWSLSMEDQRLNPNGGAIALGHPLGASGARILTTLVHEMRRRKVQFGLATMCIGVGQGIAVVVEGMG”: the “soluble on expression in E. coli” value is reported as “soluble”.

On to “MPEGPAAVLAPRRKTRQLQVGTVGVGSDFPVSVQSMCTTKTHDVNATLQQIAELTASGCDIVRVACPRQEDADALATIAKKSQIPVIADIHFQPRYIFAAIEAGCAAVRVNPGNIKEFDGRVKEVAKAAGDAGIPIRIGVNAGSLDPRLMQKYGKATPEALVESALWEAGLFEEHGFGDIKISVKHNDPVIMVEAYRQLAAQCNYPLHLGVTEAGPAFQGTIKSAVAFGALLADGIGDTIRVSLSAPPAEEIKVGTQILQSLNLRPRKLEIVSCPSCGRAQVDVYTLADEVTAGLEGMEIPLRVAVMGCVVNGPGEAREADLGVASGNGKGQIFVKGKVIKTVPEAQIVETLIEEAMRIAEEMEGDATSGSPVVTVS”, for which the “soluble on expression in E. coli” value was “not soluble”.

Take “MPEITLNCQKLPCPQPVLRCKALLDTEAPARCTVTVDNAPASENVARFLTSRGYDTSVHADPEGLWNIIAVRKDSAVAPSCDCEVMDARGIAAIAGTAEMPQKVTVFITSETLGSGDDVLGGKLMANFLATLPELGDELWRIVCVNGGVRLATREHPAVTHLNKLEAMGVDILVCGTCLDHFGLLSEKAVGQTTNMLDVVTSLQLATKVIRPLEHHHHHH”: the “soluble on expression in E. coli” value was “soluble”.

As for “MPEITVLMPVRNGERYIKESIDSVLNQTLTDFEFLIIDDGSTDRTVEIIQGYTDKRIRLVRKEHQFIQNLNEGLELASGSYIARMDADDIMHTERLRIQLKRMKKNPDITVCGTWAKIFSDKGNERNVSHLGYGIIHEPVLELLKYNMLLHPSVMIKKEFLLNHHIEYQNYPCVEDYKLWFDIAKAGGILFVEPQELLMFRRSDTQVTVTKKKEMSLGSIRLRKEILLYLLSIYNNKTLNSLLSDFENLEKNKWMSNEDIFRFFVNLFNRIQRDTMVLEHHHHHH”, the “soluble on expression in E. coli” value was “soluble”.

On to “MPEVHATALIPMLTGTNVPESEEEIDAPIYDQREVEKIRGIAHNIAENAKNPEKLMPDFMAANPGIMSTMESLKLSDFGKTSTVVPSISTSPGPIFTLANGIPAVGTPGTQSSTTVKA”, for which the “soluble on expression in E. coli” value is reported as “soluble”.

In the case of “MPFGLKSSQSIDDKFMSITQMKNLIHYVKKNDALSHLCIYILIITGSRFKPVQHLRYEDLNFKKSCIHLNDTKNKYSKRNVKVRIKDLEYIQSVINKHPINQNGYIFHNFINFISYSAINDVLVRFCLKYKYDKYTLKSLRHTHCSYLLAKGISIQYISKRLGHADIHTTLKIYSHLIKEFEDSENSLIEKNLNDLFSDLEHHHHHH”, the “soluble on expression in E. coli” value is on record as “soluble”.

Consider “MPGFAIGQTAYVVKTDSYRLLWDCITYLDETTIAKIKELGGLDAIALSHPHYYSTQVEWAETFDVPIYIHEDDKEWVMRPSSRIIYWSGESLQLADGITIHRLGGHFSGGSVLHWEEGNDGKGILLTGDIIQVVADERWVSFMYSYPNLIPLPARKVEEMVNRVKPLQFNRLYNAFHRVVKLEHHHHHH”, for which the “soluble on expression in E. coli” value is “soluble”.

Regarding “MPGFNYGGDQDEVYTPYRRVLVTGATGLLGRAVYKEFKNNDWDALGCGYNRARPFFLKCNLLDEDAVRGVIQSFQPHVIVHCAAERRPDVVERHTEAAMNLNVHACATLAKEAGGSFLIYISTDYVFDGRNPPYGENDAPNPLNLYGKSKLEGEREILRHCPGAAVLRVPILFGEVEKVEESAVTVLFERVQEGAESCTIDHCQQRFPTYTNDVARVCRNMAERALQDQSLRGIFHYSAKEQMTKYEMTCAIADAFNLPSSHLIPMTEQPAGAGAQRPQNAQLECSRLELLGLSVESTPFKNAIRDSLWPFQHDKRWRQTVFH”, the “soluble on expression in E. coli” value is reported as “soluble”.

The record behind these values is the DeepSol protein solubility set.
